Measured values: US20230287598A1
“And” between values parts separate entries of the source, which are not always exact repeats. Equal values may be shown once. Read-outs that look alike come from different tables or passages of the source. One block for each substance: values may come before it.

Tests used:
Kv1.3 (human) = Kv1.3 (human) (UniProt P22001); assay: cell-based or functional assay
CXCR1 [1] = molecular target: CXCR1 (UniProt P25024); assay: cell-based or functional assay
CXCR1 [2] = molecular target: CXCR1 (UniProt P25024); assay: flow cytometry, CXCR1-U2OS / parental U2OS; HC BLV1H12+CDR3-IL8
CXCR1 [3] = molecular target: CXCR1 (UniProt P25024); assay: cell-based or functional assay; remark: listed apart in the source
CXCR1 [4] = molecular target: CXCR1 (UniProt P25024); assay: flow cytometry on CXCR1-U2OS cells, supernatant IgG (parental U2OS: 76)

soluble IL-8, sequence (P10145 28-99 limits assumed): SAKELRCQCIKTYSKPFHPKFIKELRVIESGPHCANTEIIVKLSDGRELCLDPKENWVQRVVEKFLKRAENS
IL-8, sequence (P10145 28-99 limits assumed): as above
Kv1.3 (human), sequence (P22001 whole entry): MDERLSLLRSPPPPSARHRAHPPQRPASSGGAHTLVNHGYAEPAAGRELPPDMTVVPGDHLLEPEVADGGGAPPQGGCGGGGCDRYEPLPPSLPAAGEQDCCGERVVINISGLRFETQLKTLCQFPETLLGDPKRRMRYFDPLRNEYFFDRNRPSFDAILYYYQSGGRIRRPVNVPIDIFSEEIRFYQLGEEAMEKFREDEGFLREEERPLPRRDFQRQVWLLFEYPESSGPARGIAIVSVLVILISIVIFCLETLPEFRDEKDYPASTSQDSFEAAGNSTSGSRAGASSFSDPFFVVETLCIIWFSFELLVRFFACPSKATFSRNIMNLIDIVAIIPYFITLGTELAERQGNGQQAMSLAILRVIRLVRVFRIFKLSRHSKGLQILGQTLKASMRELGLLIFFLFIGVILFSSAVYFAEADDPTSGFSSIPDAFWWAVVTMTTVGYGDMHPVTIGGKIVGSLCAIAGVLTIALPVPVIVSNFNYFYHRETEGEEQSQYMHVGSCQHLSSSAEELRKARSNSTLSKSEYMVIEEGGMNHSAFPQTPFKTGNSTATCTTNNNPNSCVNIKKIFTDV
CXCR1, sequence (P25024 whole entry): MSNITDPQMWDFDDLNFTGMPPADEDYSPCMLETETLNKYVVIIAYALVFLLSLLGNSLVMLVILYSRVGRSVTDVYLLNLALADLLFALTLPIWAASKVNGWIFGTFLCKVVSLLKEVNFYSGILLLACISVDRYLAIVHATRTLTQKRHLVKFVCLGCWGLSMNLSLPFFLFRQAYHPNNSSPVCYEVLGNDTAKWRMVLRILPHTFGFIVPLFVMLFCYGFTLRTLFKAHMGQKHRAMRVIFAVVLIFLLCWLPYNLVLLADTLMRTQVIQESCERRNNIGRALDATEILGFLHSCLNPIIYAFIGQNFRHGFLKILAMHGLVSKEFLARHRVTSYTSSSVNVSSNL

Substance: Negative Control IgG (antibody)
IL-2 ELISA (A450), Donor 1, 0.01 nM IgG (Kv1.3 (human)): 2 A450 and 2.15 A450 | IL-2 ELISA (A450), Donor 1, 0.75 nM IgG (Kv1.3 (human)): 2.11 A450 and 2.04 A450 | IL-2 ELISA (A450), Donor 1, 68 nM IgG (Kv1.3 (human)): 1.48 A450 and 1.55 A450 | IL-2 ELISA (A450), Donor 2, 0.01 nM IgG (Kv1.3 (human)): 1.61 A450 and 1.48 A450 | IL-2 ELISA (A450), Donor 2, 0.75 nM IgG (Kv1.3 (human)): 1.56 A450 and 1.52 A450 | IL-2 ELISA (A450), Donor 2, 68 nM IgG (Kv1.3 (human)): 1.5 A450 and 1.37 A450 | TNF-α ELISA (A450), Donor 1, 0.01 nM IgG (Kv1.3 (human)): 1.62 A450 and 1.66 A450 | TNF-α ELISA (A450), Donor 1, 0.75 nM IgG (Kv1.3 (human)): 1.69 A450 and 1.65 A450 | TNF-α ELISA (A450), Donor 1, 68 nM IgG (Kv1.3 (human)): 1.02 A450 and 1.13 A450 | TNF-α ELISA (A450), Donor 2, 0.01 nM IgG (Kv1.3 (human)): 2.07 A450 and 1.77 A450 | TNF-α ELISA (A450), Donor 2, 0.75 nM IgG (Kv1.3 (human)): 2.04 A450 and 1.85 A450 | TNF-α ELISA (A450), Donor 2, 68 nM IgG (Kv1.3 (human)): 1.88 A450 and 1.54 A450

Substance: IL-8 (from UniProt P10145 28-99) (ligand)
CXCR1 activation, average RLU at 0.01 nM (CXCR1 [1]): 440 RLU | CXCR1 activation, average RLU at 0.08 nM (CXCR1 [1]): 504 RLU | CXCR1 activation, average RLU at 0.23 nM (CXCR1 [1]): 940 RLU | CXCR1 activation, average RLU at 0.69 nM (CXCR1 [1]): 1940 RLU | CXCR1 activation, average RLU at 2.06 nM (CXCR1 [1]): 4110 RLU | CXCR1 activation, average RLU at 6.17 nM (CXCR1 [1]): 5870 RLU | CXCR1 activation, average RLU at 18.52 nM (CXCR1 [1]): 7300 RLU | CXCR1 activation, average RLU at 31.5 nM (CXCR1 [1]): 55500 RLU | CXCR1 activation, average RLU at 55.56 nM (CXCR1 [1]): 7360 RLU | CXCR1 activation, average RLU at 166.67 nM (CXCR1 [1]): 6770 RLU | CXCR1 activation, average RLU at 500.00 nM (CXCR1 [1]): 5720 RLU | CXCR1 activation, luminescence at 0.4 nM IL-8 domains (CXCR1 [1]): 4930 | CXCR1 activation, luminescence at 1.6 nM IL-8 domains (CXCR1 [1]): 8730 | CXCR1 activation, luminescence at 6.25 nM IL-8 domains (CXCR1 [1]): 22300 | CXCR1 activation, luminescence at 25 nM IL-8 domains (CXCR1 [1]): 42200 | CXCR1 activation, luminescence at 100 nM IL-8 domains (CXCR1 [1]): 54000 | CXCR1 activation, luminescence at 0.4 nM IL-8 domains (CXCR1 [3]): 6530 | CXCR1 activation, luminescence at 1.6 nM IL-8 domains (CXCR1 [3]): 12200 | CXCR1 activation, luminescence at 6.25 nM IL-8 domains (CXCR1 [3]): 28600 | CXCR1 activation, luminescence at 25 nM IL-8 domains (CXCR1 [3]): 50500 | CXCR1 activation, luminescence at 100 nM IL-8 domains (CXCR1 [3]): 70200

Substance: BLV1H12-IL8 (antibody)
CXCR1 activation, luminescence, 0.1 nM IL-8 domains (CXCR1 [1]): 4520 luminescence | CXCR1 activation, luminescence, 0.5 nM IL-8 domains (CXCR1 [1]): 9940 luminescence | CXCR1 activation, luminescence, 2.2 nM IL-8 domains (CXCR1 [1]): 17600 luminescence | CXCR1 activation, luminescence, 9.9 nM IL-8 domains (CXCR1 [1]): 25300 luminescence | CXCR1 activation, luminescence, 44 nM IL-8 domains (CXCR1 [1]): 32600 luminescence | CXCR1 activation, luminescence, 200 nM IL-8 domains (CXCR1 [1]): 32200 luminescence

Further lines, results first:

CXCR1 activation, average RLU at 0.001 nM IgG (CXCR1 [1]): 7500 RLU | CXCR1 activation, average RLU at 0.004 nM IgG (CXCR1 [1]): 7390 RLU | CXCR1 activation, average RLU at 0.013 nM IgG (CXCR1 [1]): 7050 RLU | CXCR1 activation, average RLU at 0.040 nM IgG (CXCR1 [1]): 6970 RLU | CXCR1 activation, average RLU at 0.120 nM IgG (CXCR1 [1]): 7330 RLU | CXCR1 activation, average RLU at 0.359 nM IgG (CXCR1 [1]): 6690 RLU | CXCR1 activation, average RLU at 1.076 nM IgG (CXCR1 [1]): 7180 RLU | CXCR1 activation, average RLU at 3.228 nM IgG (CXCR1 [1]): 7030 RLU | CXCR1 activation, average RLU at 9.685 nM IgG (CXCR1 [1]): 7170 RLU | CXCR1 activation, average RLU at 29.056 nM IgG (CXCR1 [1]): 7100 RLU | CXCR1 activation, average RLU at 87.167 nM IgG (CXCR1 [1]): 7140 RLU | CXCR1 activation, average RLU at 261.500 nM IgG (CXCR1 [1]): 7540 RLU
Substance: IgG VH4-4 CDR3 BsaI (lacking the IL-8 insert) (antibody)

FACS CXCR1/Parental Ratio (CXCR1 [2]): 5
Substance: BLV1H12+CDR3-IL8 / BLV1H12 light chain (SEQ ID NO: 412) IgG (antibody)

CXCR1 activation, luminescence, 0.1 nM IL-8 domains (CXCR1 [1]): 4200 luminescence | CXCR1 activation, luminescence, 0.5 nM IL-8 domains (CXCR1 [1]): 9790 luminescence | CXCR1 activation, luminescence, 2.2 nM IL-8 domains (CXCR1 [1]): 25700 luminescence | CXCR1 activation, luminescence, 9.9 nM IL-8 domains (CXCR1 [1]): 50300 luminescence | CXCR1 activation, luminescence, 44 nM IL-8 domains (CXCR1 [1]): 54100 luminescence | CXCR1 activation, luminescence, 200 nM IL-8 domains (CXCR1 [1]): 50400 luminescence
Substance: soluble IL-8 (from UniProt P10145 28-99) (ligand)

Median Arbitrary Fluorescence Units (AFU) (CXCR1 [4]): 707 AFU | CXCR1 activation, average RLU at 0.001 nM IgG (CXCR1 [1]): 7440 RLU | CXCR1 activation, average RLU at 0.004 nM IgG (CXCR1 [1]): 7240 RLU | CXCR1 activation, average RLU at 0.01 nM (CXCR1 [1]): 435 RLU | CXCR1 activation, average RLU at 0.013 nM IgG (CXCR1 [1]): 7330 RLU | CXCR1 activation, average RLU at 0.040 nM IgG (CXCR1 [1]): 7740 RLU | CXCR1 activation, average RLU at 0.08 nM (CXCR1 [1]): 822 RLU | CXCR1 activation, average RLU at 0.120 nM IgG (CXCR1 [1]): 8870 RLU | CXCR1 activation, average RLU at 0.23 nM (CXCR1 [1]): 1520 RLU | CXCR1 activation, average RLU at 0.359 nM IgG (CXCR1 [1]): 13300 RLU | CXCR1 activation, average RLU at 0.69 nM (CXCR1 [1]): 2650 RLU | CXCR1 activation, average RLU at 1.076 nM IgG (CXCR1 [1]): 23700 RLU | CXCR1 activation, average RLU at 2.06 nM (CXCR1 [1]): 3640 RLU | CXCR1 activation, average RLU at 3.228 nM IgG (CXCR1 [1]): 34500 RLU | CXCR1 activation, average RLU at 6.17 nM (CXCR1 [1]): 4430 RLU | CXCR1 activation, average RLU at 9.685 nM IgG (CXCR1 [1]): 39300 RLU | CXCR1 activation, average RLU at 18.52 nM (CXCR1 [1]): 5070 RLU | CXCR1 activation, average RLU at 29.056 nM IgG (CXCR1 [1]): 47600 RLU | CXCR1 activation, average RLU at 55.56 nM (CXCR1 [1]): 5510 RLU | CXCR1 activation, average RLU at 87.167 nM IgG (CXCR1 [1]): 52100 RLU | CXCR1 activation, average RLU at 166.67 nM (CXCR1 [1]): 6210 RLU | CXCR1 activation, average RLU at 261.500 nM IgG (CXCR1 [1]): 56300 RLU | CXCR1 activation, average RLU at 500.00 nM (CXCR1 [1]): 6640 RLU
Substance: BLV1H12+CDR3-IL8 IgG (antibody)
